Test results taken from US20240317859A1 (FOUNDATION FOR BIOMEDICAL RESEARCH AND INNOVATION AT KOBE, published 2024).
Read-outs that look alike come from different tables or passages of the source.

What was measured:
[1] = target: T1, human PD-1 (wild-type), expressed on cells (human, UniProt Q15116 25-288); assay: cell-based or functional assay
[2] = target: Human PD-1/PDCD1 Protein (PD-1) (human, UniProt Q15116 25-167, limits assumed); assay: SPR, Biacore 8K; PD-1 captured by anti-His antibody, antibody in flow
Procedure: The binding affinity of each antibody to human PD-1 was measured with Biacore 8K (Cytiva). Briefly, anti-His Tag antibody was immobilized by amine coupling using Amine Coupling Kit and His Capture Kit, onto 8 channels of a sensor chip (provided with 16 flow cells; one channel consisting of two flow cells) which had carboxymethyl dextran immobilized on a gold film. The immobilization was performed by feeding an activation solution (NHS and EDC mixed in equal amounts) at a flow rate of 10 μl/min for 7 minutes, an immobilization solution at a flow rate of 5 μl/min for 7 minutes, and 1 M ethanolamine hydrochloride-NaOH (pH 8.5) at a flow rate of 10 μl/min for 7 minutes. The buffer used at the time of immobilization was 1×HBS-EP+ Buffer. After the immobilization and before applying a sample, Human PD-1/PDCD1 Protein (PD-1) adjusted to 1 μg/ml with 1×HBS-EP+ Buffer was fed to one of the two flow cells of each channel in an amount of 20 μl at a flow rate of 10 μl/min to thereby capture PD-1 on the sensor chip. As regards the other flow cell, 1×HBS-EP+ Buffer was fed in the same manner to prepare a control flow cell. Each antibody was adjusted to 16 nM with 1×HBS-EP+ Buffer, and then subjected to 2-fold 7-step serial dilution using 1×HBS-EP+ Buffer. The resultant sample solution (30 μl) was fed to each flow cell at a flow rate of 10 μl/min and the response was measured. After subtracting the response of control flow cell from the response of the flow cell which was allowed to capture the ligand, KD value was calculated by curve fitting using Biacore 8K Evaluation Software.

[3] = target: T1, human PD-1 (wild-type), expressed on …; assay: cell-based or functional assay; remark: listed apart in the source

T1 sequence (Q15116 25-288 limits assumed): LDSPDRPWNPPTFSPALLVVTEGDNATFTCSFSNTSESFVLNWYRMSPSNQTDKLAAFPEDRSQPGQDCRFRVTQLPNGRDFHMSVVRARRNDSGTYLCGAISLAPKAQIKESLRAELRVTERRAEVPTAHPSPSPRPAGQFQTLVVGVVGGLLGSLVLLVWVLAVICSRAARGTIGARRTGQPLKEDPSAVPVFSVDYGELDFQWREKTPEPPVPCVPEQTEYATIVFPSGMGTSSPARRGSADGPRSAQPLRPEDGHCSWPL

Cell-cell contact assay [1] [ng/mL]	Kd [2] [nM]	Cell-cell contact assay [3] [ng/mL]	Binder
13.7	< 0.051	–	chimeric HM242-IgG1-K322A (antibody, Mouse Fab region with the Fc region of human IgG1-K322A) heavy: not shown light: DIQMTQTTSSLSASLGDRVTISCRASQDISNYLNWYQQKPDGTVTLLIYYTSKLHSGVPSRFSGSGSGTDYSLTITNLEQKDFATYFCQQSSTLPFTFGGGTKLEIKRTVAAPSVFIFPPSDEQLKSGTASVVCLLNNFYPREAKVQWKVDNALQSGNSQESVTEQDSKDSTYSLSSTLTLSKADYEKHKVYACEVTHQGLSSPVTKSFNRGEC
23.7	< 0.0186	–	humanized HM242-C3-IgG1-K322A (antibody, V domains shown) VH: QVQLVQSGPEVKKPGASVKVVCKASGYTFTSYYIQWVKQRPGQGLEWIGWIYPGDGTTKYNEKFKGRVTMTIDKSTRTAYMELRSLRSDDTAVYYCASYYGSYFDYWGQGTLVTVSS VL: DIQMTQSPSSLSASVGDRVTITCRASQDISNYLNWYQQKPGKAPKLLIYYTSKLHSGVPSRFSGSGSGTDYTLTISSLQPEDFATYYCQQSSTLPFTFGQGTKLEIKR
24.8	0.103	–	HM242-D1 (antibody, human IgG1, V domains shown, also called humanized HM242, VH ver.D / VL ver.1) VH: QVQLVQSGPEVKKPGASVKVVCKASGYTFTSYYIQWVRQVPGQGLEWMGWIYPGDGTTKYNEKFKGRVTMTIDTSTSTAYMELRSLRSDDTAVYYCASYYGSYFDYWGQGTLVTVSS VL: DIQMTQTTSSLSASVGDRVTITCRASQDISNYLNWYQQKPDGTVTLLIYYTSKLHSGVPSRFSGSGSGTDYTLTISSLEQKDFATYYCQQSSTLPFTFGQGTKLEIK
13.1	< 0.0356	–	HM242-A1 (antibody, human IgG1, V domains shown, also called humanized HM242, VH ver.A / VL ver.1) VH: QVQLVQSGPELVKPGASVKVVCKASGYTFTSYYIQWVKQRPGQGLEWIGWIYPGDGTTKYNEKFKGKTTLTIDKSTRTAYMELRSLRSDDTAVYYCASYYGSYFDYWGQGTLVTVSS VL: DIQMTQTTSSLSASVGDRVTITCRASQDISNYLNWYQQKPDGTVTLLIYYTSKLHSGVPSRFSGSGSGTDYTLTISSLEQKDFATYYCQQSSTLPFTFGQGTKLEIK
8.83	< 0.0315	–	HM242-B2 (antibody, human IgG1, V domains shown, also called humanized HM242, VH ver.B / VL ver.2) VH: QVQLVQSGPEVKKPGASVKVVCKASGYTFTSYYIQWVRQVPGQGLEWMGWIYPGDGTTKYNEKFKGKTTLTIDKSTRTAYMELRSLRSDDTAVYYCASYYGSYFDYWGQGTLVTVSS VL: DIQMTQSPSSLSASVGDRVTITCRASQDISNYLNWYQQKPDGTVTLLIYYTSKLHSGVPSRFSGSGSGTDYTLTISSLQPEDFATYYCQQSSTLPFTFGQGTKLEIK
7.15	< 0.0448	–	HM242-B1 (antibody, human IgG1, V domains shown, also called humanized HM242, VH ver.B / VL ver.1) VH: QVQLVQSGPEVKKPGASVKVVCKASGYTFTSYYIQWVRQVPGQGLEWMGWIYPGDGTTKYNEKFKGKTTLTIDKSTRTAYMELRSLRSDDTAVYYCASYYGSYFDYWGQGTLVTVSS VL: DIQMTQTTSSLSASVGDRVTITCRASQDISNYLNWYQQKPDGTVTLLIYYTSKLHSGVPSRFSGSGSGTDYTLTISSLEQKDFATYYCQQSSTLPFTFGQGTKLEIK
16.7	< 0.0408	–	HM242-A2 (antibody, human IgG1, V domains shown, also called humanized HM242, VH ver.A / VL ver.2) VH: QVQLVQSGPELVKPGASVKVVCKASGYTFTSYYIQWVKQRPGQGLEWIGWIYPGDGTTKYNEKFKGKTTLTIDKSTRTAYMELRSLRSDDTAVYYCASYYGSYFDYWGQGTLVTVSS VL: DIQMTQSPSSLSASVGDRVTITCRASQDISNYLNWYQQKPDGTVTLLIYYTSKLHSGVPSRFSGSGSGTDYTLTISSLQPEDFATYYCQQSSTLPFTFGQGTKLEIK
18.8	< 0.0217	–	HM242-A3 (antibody, human IgG1, V domains shown, also called humanized HM242, VH ver.A / VL ver.3) VH: QVQLVQSGPELVKPGASVKVVCKASGYTFTSYYIQWVKQRPGQGLEWIGWIYPGDGTTKYNEKFKGKTTLTIDKSTRTAYMELRSLRSDDTAVYYCASYYGSYFDYWGQGTLVTVSS VL: DIQMTQSPSSLSASVGDRVTITCRASQDISNYLNWYQQKPGKAPKLLIYYTSKLHSGVPSRFSGSGSGTDYTLTISSLQPEDFATYYCQQSSTLPFTFGQGTKLEIK
–	0.00359	75.8	HM268-M8 (antibody, human IgG1, V domains shown, also called humanized HM268, VH ver.M / VL ver.8) VH: QVQLVQSGPEVKKPGASVKVVCKASGYTFTSYYIQWVRQVPGQGLEWMGWIYFGDASTKYNEKFKGRVTMTADTSTSTAYMELRSLRSDDTAVYYCASYYGSYFDYWGQGTTVTVSS VL: DIQMTQSPSSLSASVGDRVTITCRASQDISNYLNWYQQKPDGTVKLLIYSTSRLHSGVPSRFSGSGSGTDYTLTISSLQPEDFATYYCQQGSTLPFTFGQGTKLEIK
20.8	< 0.0307	–	HM242-B3 (antibody, human IgG1, V domains shown, also called humanized HM242, VH ver.B / VL ver.3) VH: QVQLVQSGPEVKKPGASVKVVCKASGYTFTSYYIQWVRQVPGQGLEWMGWIYPGDGTTKYNEKFKGKTTLTIDKSTRTAYMELRSLRSDDTAVYYCASYYGSYFDYWGQGTLVTVSS VL: DIQMTQSPSSLSASVGDRVTITCRASQDISNYLNWYQQKPGKAPKLLIYYTSKLHSGVPSRFSGSGSGTDYTLTISSLQPEDFATYYCQQSSTLPFTFGQGTKLEIK
31.5	< 0.0492	–	humanized HM242-D3-IgG1-K322A (antibody, V domains shown) VH: QVQLVQSGPEVKKPGASVKVVCKASGYTFTSYYIQWVRQVPGQGLEWMGWIYPGDGTTKYNEKFKGRVTMTIDTSTSTAYMELRSLRSDDTAVYYCASYYGSYFDYWGQGTLVTVSS VL: DIQMTQSPSSLSASVGDRVTITCRASQDISNYLNWYQQKPGKAPKLLIYYTSKLHSGVPSRFSGSGSGTDYTLTISSLQPEDFATYYCQQSSTLPFTFGQGTKLEIKR
33.3	< 0.0603	–	HM242-D2 (antibody, human IgG1, V domains shown, also called humanized HM242, VH ver.D / VL ver.2) VH: QVQLVQSGPEVKKPGASVKVVCKASGYTFTSYYIQWVRQVPGQGLEWMGWIYPGDGTTKYNEKFKGRVTMTIDTSTSTAYMELRSLRSDDTAVYYCASYYGSYFDYWGQGTLVTVSS VL: DIQMTQSPSSLSASVGDRVTITCRASQDISNYLNWYQQKPDGTVTLLIYYTSKLHSGVPSRFSGSGSGTDYTLTISSLQPEDFATYYCQQSSTLPFTFGQGTKLEIK
–	0.0252	301	HM268-J9 (antibody, human IgG1, V domains shown, also called humanized HM268, VH ver.J / VL ver.9) VH: QVQLVQSGPEVKKPGASVKVVCKTSGYTFTSYYIQWVRQVPGQGLEWMGWIYFGDASTKYNEKFKGKTTLTADKSTSTAYMELRSLRSDDTAVYYCASYYGSYFDYWGQGTTVTVSS VL: DIQMTQSPSSLSASVGDRVTITCRASQDISNYLNWYQQKPGKAPKLLIYSTSRLHSGVPSRFSGSGSGTDYTLTISSLQPEDFATYYCQQGSTLPFTFGQGTKLEIK
–	0.00482	70.9	HM268-J7 (antibody, human IgG1, V domains shown, also called humanized HM268, VH ver.J / VL ver.7) VH: QVQLVQSGPEVKKPGASVKVVCKTSGYTFTSYYIQWVRQVPGQGLEWMGWIYFGDASTKYNEKFKGKTTLTADKSTSTAYMELRSLRSDDTAVYYCASYYGSYFDYWGQGTTVTVSS VL: DIQMTQNTSSLSASVGDRVTITCRASQDISNYLNWYQQKPDGTVKLLIYSTSRLHSGVPSRFSGSGSGTDYTLTISSLEQEDFATYYCQQGSTLPFTFGQGTKLEIK
–	< 0.00284	63.1	HM268-J8 (antibody, human IgG1, V domains shown, also called humanized HM268, VH ver.J / VL ver.8) VH: QVQLVQSGPEVKKPGASVKVVCKTSGYTFTSYYIQWVRQVPGQGLEWMGWIYFGDASTKYNEKFKGKTTLTADKSTSTAYMELRSLRSDDTAVYYCASYYGSYFDYWGQGTTVTVSS VL: DIQMTQSPSSLSASVGDRVTITCRASQDISNYLNWYQQKPDGTVKLLIYSTSRLHSGVPSRFSGSGSGTDYTLTISSLQPEDFATYYCQQGSTLPFTFGQGTKLEIK
